Patent US9011845B2, “Methods for treatment of inflammatory and infectious viral diseases” (priority 2012, dated 2015)

Legend:
[1] = tested on: acyclovir resistant mutant HSV; assay: Cell cultures infected with acyclovir resistant mutant HSV: infectious HSV yield; assay type: cell-based; details: two different drug resistant mutant HSV viruses
Source text: FIG. 8A is a bar graph showing infectious HSV yield for cell cultures infected with an acyclovir resistant mutant HSV, according to an example embodiment of the present invention.
FIG. 8B is a bar graph showing infectious HSV yield for cell cultures infected with a different acyclovir resistant mutant HSV, according to an example embodiment of the present invention.
(§1) In another exemplary embodiment, the present disclosure may be employed to treat pathogenic infections of the eye (e.g., herpes simplex virus types 1 and 2 (HSV-1 and HSV-2) and Adenovirus infections). Embodiments may be used as a treatment against wild-type and/or drug resistant herpes simplex virus (HSV) replication and/or transmission, as well as HSV-mediated inflammation-associated ocular disease.

Adenovirus Type 5 = Adenovirus Type 5 pink-eye clinical disease rabbit eye model; assay type: in vivo; details: treatment initiated eight hours after infection; four times daily
Experimental: FIG. 19 is a series of images of rabbit eyes with an Adenoviral infection and treated with control (peg-BSA), cidofovir, or peg-Arginase I drops, according to an example embodiment of the present invention.
In an in vivo rabbit eye model system, the ability of peg-Arginase I to prevent inflammation-associated disease following Adenoviral infection was examined. Rabbit eyes were infected with Adenovirus and eight hours later treatment was initiated. Eyes were treated four times daily with 10 U peg-Arginase I per 50 μl dose. […] FIGS. 20 through 24 illustrate that peg-Arginase I suppresses clinical presentation of disease at all treatment days, including suppression of ocular inflammation and neovascularization. […] These properties of peg-Arginase I illustrate the present invention's utility in preventing numerous vision-threatening ocular diseases that present clinically as inflammation or neovascularization of the eye.

HSV-1 [2] = assay: In vivo rabbit eye model of HSV infection; details: for dendritic or geographic ulceration and clinical appearance: vs controls (PBS or peg-BSA)
Source text: FIG. 10 is line graph showing viral production in a rabbit eye model for eyes infected with HSV-1 and treated with controls (peg-BSA and PBS), 1% triflourothymidine, or peg-Arginase I, according to an example embodiment of the present invention.
FIG. 11 is a series of images of rabbit eyes infected with HSV-1 and treated with controls (peg-BSA or PBS), 1% triflourothymidine, or peg-Arginase I, according to an example embodiment of the present invention.
In an in vivo rabbit eye model system, the ability of peg-Arginase I to prevent HSV-mediated inflammation-associated disease was assessed relative to a commonly prescribed ophthalmic antiviral-1% triflourothymidine (TFT). Rabbit eyes were infected with HSV, and infection and disease were allowed to establish prior to beginning treatment. […] FIG. 11 depicts representative overall clinical presentation of ocular herpetic disease. In either of the control (PBS or peg-BSA) treatment groups, severe blinding disease was observed following infection, with presence of severe inflammatory discharge and blinding epithelial defects observed by slit lamp examination.

[3] = tested on: surgically-induced corneal lesions; assay: Surgically debrided cornea (corneal wound healing) rabbit eye model; assay type: in vivo
Source text: FIG. 1A is a series of images of rabbit eyes with an 8 mm ([…]) region of cornea surgically debrided and treated with peg vehicle or peg-Arginase I, according to an example embodiment of the present invention.
In an exemplary embodiment, the present disclosure may be employed to treat ocular lesions, which may be caused by accidental or surgical trauma. Application of peg-Arginase I to a corneal lesion accelerates wound healing while reducing or eliminating ocular inflammation, neovascularization and inflammatory discharge.

HSV-1 [4] = assay: Replication of HSV-1 in primary corneal epithelial cell cultures; assay type: cell-based; details: primary human corneal epithelial cells
Source text: FIG. 9 is a bar graph showing replication of HSV-1 in primary corneal epithelial cell cultures treated with vehicle or peg-Arginase I, according to an example embodiment of the present invention.
as §1

[5] = tested on: VEGF-mediated migration of primary vascular endothelial cells; assay: Endothelial cell migration in a scratch wound healing model; assay type: cell-based; details: twenty-four hour period
Source text: FIG. 25A is a series of images comparing effects of treatment with either control (peg-BSA) or peg-Arginase I on endothelial cell migration in a scratch wound healing model, according to an example embodiment of the present invention.
FIG. 25B is a bar graph showing a percentage of unhealed wound area after a twenty-four hour period for the wounds shown in FIG. 25A.
In another exemplary embodiment, the present disclosure may be employed to prevent and resolve corneal neovascularization and vascularization-associated edema. […] A key mediator and initiator of corneal vascularization may be vascular endothelial growth factor (VEGF).

Adenovirus = assay: Cell cultures infected with Adenovirus: cytopathic effects; assay type: cell-based
Source text: FIG. 18 is a pair of images of cell cultures infected with Adenovirus and treated with control (peg-BSA) or peg-Arginase I drops, according to an example embodiment of the present invention.
In another exemplary embodiment, the present disclosure may be employed to treat other inflammation-associated ocular diseases, such as those induced by Adenovirus infection. Clinical presentation following Adenoviral infection of the eye may proceed even when antiviral compounds, such as cidofovir, are present. Clinical presentation of Adenovirus-associated ocular disease may be due to uncontrolled inflammatory responses to the infection even following viral clearance.

[6] = tested on: VEGF-mediated corneal vascularization; assay: VEGF pellet corneal micropocket rabbit eye model; assay type: in vivo; details: 10 U per 50 μl drop 4 times daily
Experimental: FIG. 26A is a pair of images of rabbit eyes having a VEGF pellet surgically implanted into a corneal micropocket and treated with vehicle or peg-Arginase I, according to an example embodiment of the present invention.
In an in vivo rabbit eye model system, the ability of peg-Arginase I to prevent VEGF-mediated corneal vascularization was assessed by implanting slow release VEGF pellets within a corneal micropocket 3 mm from the corneal limbus. Eyes were subsequently treated with either peg-Arginase I (right, OD eye) or peg-BSA vehicle control (left, OS eye) 4 times daily at a dose of 10 U per 50 μl drop. […] As shown, peg-Arginase I inhibits vision-threatening corneal vascularization, further enabling peg-Arginase I to prevent and ameliorate vision-threatening aspects of many ocular diseases. Moreover, inhibition of vascularization assists in suppressing deleterious inflammatory responses.

HSV-1 [7] = assay: HSV-1 infected cell cultures: infectious viral yield, cytopathic effects, cell-to-cell spread; assay type: cell-based
Source text: FIG. 5 is a bar graph showing infectious viral yield for cell cultures infected with HSV-1 and treated with a vehicle (peg vehicle), peg-Arginase I, or different concentrations of acyclovir, according to an example embodiment of the present invention.
FIG. 6 is a series of images showing virus-mediated cytopathic effects on cell cultures treated as described in FIG. 5.
FIG. 7A is a series of images of HSV-plaques showing capacity for cell-to-cell spread following treatment with a vehicle (peg vehicle), peg-Arginase I, or acyclovir, according to an example embodiment of the present invention.
as §1

Molecule: Nc1nc2c(ncn2COCCO)c(=O)[nH]1 [acyclovir, reference compound]
- inhibition of drug-resistant viral replication [1]: not functional against such strains, even at high doses

Molecule: Nc1ccn(C[C@@H](CO)OCP(=O)(O)O)c(=O)n1 [cidofovir, reference compound]
- clinical symptoms / clinical disease presentation (Adenovirus Type 5): did not prevent clinical disease presentation

Molecule: O=c1[nH]c(=O)n([C@H]2C[C@H](O)[C@@H](CO)O2)cc1C(F)(F)F [1% TFT, triflourothymidine, reference compound]
- dendritic or geographic ulceration and clinical appearance (HSV-1 [2]): marked reduction in the presence of dendritic or geographic ulceration, and improved clinical appearance

B1: peg-Arginase I: a formulation of arginase I that has been pegylated; applied as topical ophthalmic eye drop (protein, UniProt P05089 1-322, looked up)
Arginase-1: MSAKSRTIGIIGAPFSKGQPRGGVEEGPTVLRKAGLLEKLKEQECDVKDYGDLPFADIPNDSPFQIVKNPRSVGKASEQLAGKVAEVKKNGRISLVLGGDHSLAIGSISGHARVHPDLGVIWVDAHTDINTPLTTTSGNLHGQPVSFLLKELKGKIPDVPGFSWVTPCISAKDIVYIGLRDVDPGEHYILKTLGIKYFSMTEVDRLGIGKVMEETLSYLLGRKKRPIHLSFDVDGLDPSFTPATGTPVVGGLTYREGLYITEEIYKTGLLSGLDIMEVNPSLGKTPEEVTRTVNTAVAITLACFGLAREGNHKPIDYLNPPK
modifications: PEGylated
notes: a formulation of arginase I that has been pegylated; applied as topical ophthalmic eye drop
- Calculated Times of Corneal Epithelium Closure ([3]; 25% closure): 14 h
- Calculated Times of Corneal Epithelium Closure ([3]; 50% closure): 30 h
- Calculated Times of Corneal Epithelium Closure ([3]; 75% closure): 38 h
- eyes clinically cured of all ocular parameters ([3]; by day six): all eyes clinically cured
- time for 100% of eyes to reach clinical cure for epithelial defects relative to peg-vehicle ([3]; compared with peg-vehicle): two days faster
- Number of Eyes Clinically Cured for Area of Corneal Debridement ([3]; day 0): 0/5
- Number of Eyes Clinically Cured of All Combined Ocular Clinical Conditions ([3]; day 0): 0/5
- Number of Eyes Clinically Cured of Corneal Neovascularization ([3]; day 0): 5/5 (100%)
- Number of Eyes Clinically Cured of Scleral Inflammation (Injection) ([3]; day 0): 5/5 (100%)
- Number of Eyes Clinically Cured for Area of Corneal Debridement ([3]; day 1): 0/5
- Number of Eyes Clinically Cured of All Combined Ocular Clinical Conditions ([3]; day 1): 0/5
- Number of Eyes Clinically Cured of Corneal Neovascularization ([3]; day 1): 5/5 (100%)
- Number of Eyes Clinically Cured of Scleral Inflammation (Injection) ([3]; day 1): 5/5 (100%)
- Number of Eyes Clinically Cured for Area of Corneal Debridement ([3]; day 2): 0/5
- Number of Eyes Clinically Cured of All Combined Ocular Clinical Conditions ([3]; day 2): 0/5
- Number of Eyes Clinically Cured of Corneal Neovascularization ([3]; day 2): 5/5 (100%)
- Number of Eyes Clinically Cured of Scleral Inflammation (Injection) ([3]; day 2): 5/5 (100%)
- Number of Eyes Clinically Cured for Area of Corneal Debridement ([3]; day 3): 3/5 (60%)
- Number of Eyes Clinically Cured of All Combined Ocular Clinical Conditions ([3]; day 3): 0/5
- Number of Eyes Clinically Cured of Corneal Neovascularization ([3]; day 3): 5/5 (100%)
- Number of Eyes Clinically Cured of Scleral Inflammation (Injection) ([3]; day 3): 5/5 (100%)
- Number of Eyes Clinically Cured for Area of Corneal Debridement ([3]; day 4): 5/5 (100%)
- Number of Eyes Clinically Cured of All Combined Ocular Clinical Conditions ([3]; day 4): 4/5 (80%)
- Number of Eyes Clinically Cured of Corneal Neovascularization ([3]; day 4): 5/5 (100%)
- Number of Eyes Clinically Cured of Scleral Inflammation (Injection) ([3]; day 4): 5/5 (100%)
- Number of Eyes Clinically Cured for Area of Corneal Debridement ([3]; day 6): 5/5 (100%)
- Number of Eyes Clinically Cured of All Combined Ocular Clinical Conditions ([3]; day 6): 5/5 (100%)
- Number of Eyes Clinically Cured of Corneal Neovascularization ([3]; day 6): 5/5 (100%)
- Number of Eyes Clinically Cured of Scleral Inflammation (Injection) ([3]; day 6): 5/5 (100%)
- eyes exhibiting no symptomology from the surgically-induced trauma ([3]; day four): 80%
- antiviral effects (HSV-1 [4]): antiviral effects of peg-Arginase I were also observed
- clinical symptoms / clinical disease presentation (Adenovirus Type 5): fewer clinical symptoms
- VEGF-mediated migration of primary vascular endothelial cells [5]: prevents VEGF-mediated migration of primary vascular endothelial cells
- toxicity to cells (Adenovirus; Adenovirus infected cell cultures): no toxicity to cells
- Adenovirus-mediated cellular cytopathic effects (Adenovirus; vs peg-BSA control): prevents Adenovirus-mediated cellular cytopathic effects
- corneal edema resulting in corneal clouding and epithelial defects [6]: prevented the appearance of corneal edema
- extent and areas of neovascularization of the cornea ([6]; compared to peg-BSA treated controls): significantly reduced
- virus-associated cytopathic effects, viral transmission to uninfected cells, cell-to-cell spread (HSV-1 [7]; HSV-1 infected cell cultures): blocked virus-associated cytopathic effects, viral transmission to uninfected cells, and cell-to-cell spread
- inhibition of production of infectious virus (HSV-1 [7]; even at high multiplicities of infection (MOIs)): greater than 1000 fold
- effectiveness compared with acyclovir (HSV-1 [7]; infectious viral yield, HSV-1): at least as effective as high doses of a common anti-herpetic, acyclovir
- inhibition of drug-resistant viral replication [1]: highly efficient at inhibiting drug-resistant viral replication
- clinical presentation of disease (HSV-1 [2]; five days of treatment): statistically improved clinical presentation of disease
- infectious viral titers upon treatment (HSV-1 [2]; treatment begun after infection established (day three post infection titers matched)): barely detectable
- dendritic or geographic ulceration and clinical appearance (HSV-1 [2]): marked reduction in the presence of dendritic or geographic ulceration, and improved clinical appearance
